Results: patent publication US20250049970A1, “DLL3 TARGETING PEPTIDES AND CONSTRUCTS THEREOF” (MARIANA ONCOLOGY INC., priority 2023, published 2025)
Where “and” joins values, the source holds several entries; their conditions need not be identical. Equal values may be shown once. *1 amine or outer side, *2 acyl side, *3 side chain or, on linkers, in order; H or OH if unused. Bridges are numbered along the chain shown (N, C = ends). [ ]: non-standard residue; d: D form. The star is where a group is joined. Ala(piperidin-4-yl) = O=C([C@H](CC1CCN([*:3])CC1)N[*:1])[*:2]; DOTA = O=C(O)CN1CCN(CC(=O)O)CCN(CC(=O)*)CCN(CC(=O)O)CC1; 2Nal = N[C@@H](Cc1ccc2ccccc2c1)C(=O)O; aIle = CC[C@@H](C)[C@H](N)C(=O)O

T1: Biotinylated target ligand human DLL3 (human, UniProt Q9NYJ7 27-492, limits assumed, biotinylated (site not stated))
T1 sequence: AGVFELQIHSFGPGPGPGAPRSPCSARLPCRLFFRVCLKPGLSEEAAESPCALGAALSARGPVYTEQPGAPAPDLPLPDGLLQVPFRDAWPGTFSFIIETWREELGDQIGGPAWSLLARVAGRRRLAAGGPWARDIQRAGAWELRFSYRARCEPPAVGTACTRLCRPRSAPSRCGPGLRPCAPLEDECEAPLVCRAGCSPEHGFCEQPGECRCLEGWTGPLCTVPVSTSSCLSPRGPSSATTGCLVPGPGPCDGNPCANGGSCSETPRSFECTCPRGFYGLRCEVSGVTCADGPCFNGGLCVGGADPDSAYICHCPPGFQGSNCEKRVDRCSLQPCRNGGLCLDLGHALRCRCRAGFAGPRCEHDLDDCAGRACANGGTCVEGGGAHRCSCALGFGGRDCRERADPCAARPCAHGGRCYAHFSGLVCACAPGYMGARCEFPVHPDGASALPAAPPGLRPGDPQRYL

T2: DLL3 on SHP-77 cells (human, UniProt Q9NYJ7 27-618)
T2 construct: SHP-77 cells are human-derived, non-engineered SCLC cells
T2 sequence: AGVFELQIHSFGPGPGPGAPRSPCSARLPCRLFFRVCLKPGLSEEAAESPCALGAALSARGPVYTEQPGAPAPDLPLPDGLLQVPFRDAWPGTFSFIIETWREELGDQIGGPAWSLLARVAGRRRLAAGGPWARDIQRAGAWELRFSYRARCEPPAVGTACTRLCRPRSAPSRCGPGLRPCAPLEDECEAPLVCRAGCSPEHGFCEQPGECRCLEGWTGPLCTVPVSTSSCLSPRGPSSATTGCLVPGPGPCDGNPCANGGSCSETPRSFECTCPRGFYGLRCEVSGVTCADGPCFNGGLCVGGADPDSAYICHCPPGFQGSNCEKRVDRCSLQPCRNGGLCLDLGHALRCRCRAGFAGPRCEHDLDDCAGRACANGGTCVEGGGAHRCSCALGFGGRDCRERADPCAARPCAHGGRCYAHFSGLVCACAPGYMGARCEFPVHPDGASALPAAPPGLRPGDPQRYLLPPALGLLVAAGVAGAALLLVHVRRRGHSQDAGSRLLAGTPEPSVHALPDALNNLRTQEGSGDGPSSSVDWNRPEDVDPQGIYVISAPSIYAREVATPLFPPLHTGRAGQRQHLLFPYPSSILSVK


How the values were obtained:
[1] = target: T1, Biotinylated target ligand human DLL3; assay: SPR, biotinylated human DLL3 on streptavidin chip; B = 1.0 nM<KD<=10 nM; upper limit of grade B
Protocol: (§1) Biotinylated target ligand human DLL3 was immobilized on a streptavidin sensor chip. A reference surface was set up for nonspecific binding and refractive index changes. For analysis of the kinetics of interactions, varying concentrations of samples were injected at a flow rate of 100 μL/minute using running buffer containing 20 mM phosphate buffer with 2.7 mM KCl, 137 mM NaCl, 0.05% Surfactant P20 and 2% DMSO. Sensorgram curves were fitted with 1:1 binding model, and affinity and kinetic parameters were obtained using Biacore Insight evaluation 4.0. software.

[2] = target: T1, Biotinylated target ligand human DLL3; assay: SPR, biotinylated human DLL3 on streptavidin chip; B = 1.0 nM<KD<=10 nM; lower limit of grade B
Protocol: as §1

[3] = target: T1, Biotinylated target ligand human DLL3; assay: SPR, biotinylated human DLL3 on streptavidin chip; A = KD<=1.0 nM
Protocol: as §1

DLL3 on SHP-77 cells = target: T2, DLL3 on SHP-77 cells; assay: [177Lu]Lu-labelled peptide on SHP-77 cells, 1 h 37 C, gamma counter; B = 25<%<=50
[4] = target: DLL3 on CT26.DLL3 cells (Homo sapiens (Human)) (UniProt Q9NYJ7); assay: [177Lu]Lu-labelled peptide on CT26.DLL3 cells, 1 h 37 C, gamma counter; A = %<=25

Kd [1]	Kd [2]	Kd [3]	% Binding (DLL3 on SHP-77 cells)	% Binding [4]	Binder
≤ 10 nM	> 1 nM	–	–	–	Ac-MWTICNNWHDCWP-NH2 (disulfide 5-11) [Cpd No. 1]
–	–	< 1 nM	> 25% and < 50%	< 25%	Ac-WT[aIle]C[Ala(piperidin-4-yl)]N[2Nal]K(DOTA)DCWP-NH2 (disulfide 4-10) [Cpd No. 303]
